Data taken from the Human Domainome abundance scans (Beltran et al. 2025).

B1: Spectrin alpha chain, erythrocytic 1, residues 979 to 1036; numbered along this chain, P02549 (parent)
chain: EQRVMALYDFQARSPREVTMKKGDVLTLLSSINKDWWKVEAADHQGIVPAVYVRRLAH
B2: Histidine--tRNA ligase, cytoplasmic, residues 8 to 45; numbered along this chain, P12081 (parent)
chain: EELVKLQGERVRGLKQQKASAELIEEEVAKLLKLKAQL

Variants of: B1
Assay: abundance fitness (aPCA) (normalised: wild type 0, dead -1); higher = more abundant; growth selection in yeast, the domain comes from the species named
Conditions: Homo sapiens

Abundance fitness: each site, then its substitutions
L28: A -0.762 | T -0.47 | C 0.354
F10: Y 0.625 | C -1.09 | V -0.992 | D -0.834 | I -0.341 | R -0.472
Y8: A 0.346
M5: E 0.081 | I 0.162 | S -0.344 | G -0.813 | K -0.201
I47: E -0.727 | S -0.659 | Y 0.304 | T -0.701 | F 0.349
P49: T -0.477 | G -0.44 | S -0.497 | A -0.932
S31: V 0.437 | M -0.04 | A 0.092 | L -0.38 | W -0.814
H58: R -0.078 | S 0.088
Q45: S -0.004 | G -0.754 | K 0.09 | L -0.713 | A -0.171 | D -0.498
R13: M -0.751 | G -0.527 | V -0.867 | F -0.585 | A -0.26 | L -0.742
I32: W 1.06
Q2: F 0.195 | H -0.061 | R -0.401
Y52: P -0.075 | T -0.678 | K -0.528 | L -0.284 | R -0.53 | M -0.045
K21: I -0.779 | H -0.304 | W -0.534 | L -0.731 | V -0.781 | P -0.578
P15: D 0.163 | K 0.089 | Y 0.325 | V -0.561 | G -0.46 | L -0.705
V51: P 0.173 | I 0.201 | H 0.216 | Q 0.126 | A 0.616 | D 0.148 | G 0.146
G46: S -1.04 | V -1.03 | E -0.023 | K -0.459 | W -0.452
D43: H 0.129 | A -0.314 | N -0.105 | I -0.387 | V -0.537
V18: W -1.03 | E -0.784 | Q -0.656 | G -0.587 | F -0.339 | M -0.33
A41: Y -0.448 | R 0.049 | L -0.208 | I -0.482 | V -0.633 | T 0.043

Variants of: B2
Assay: as above
Conditions: Homo sapiens

Abundance fitness: each site, then its substitutions
E1: R -0.992 | Y -1.05 | H -1.02 | I -0.132 | M -0.139 | T -0.692 | W -0.537 | C -1.18 | V -0.661 | L -0.687 | S -0.737 | F -0.386 | A -0.62 | K -0.165 | D -0.377
E2: K -0.703 | F -0.274 | G -0.868 | N -0.049 | M -0.636 | S -0.327 | Q -0.472 | C -1.08 | H -0.195 | P -0.9 | I -0.369 | Y -0.452 | W -0.97 | A -0.665 | V -0.762 | L -0.632 | T -0.591 | R -0.661
K5: A -0.234 | C -0.531 | E -0.026
L3: E 0.203 | F -0.341 | P -0.729 | A -0.162 | W -1.54 | T -0.024 | Q 0.153 | R -0.258 | K -0.088 | C -0.896 | I -0.086 | V -0.366 | D -0.454 | G -0.45 | S -0.066 | M 0.156 | N -0.287 | H -0.362 | Y -0.549
V4: S -0.264 | Q -0.563 | P -0.658 | T -0.19 | N -0.139 | C -0.46 | E -0.139 | M -0.079 | L -0.201 | W -0.468 | F -0.109 | R -0.544 | Y 0.077 | D -0.01 | K -0.568 | G -0.227 | I -0.013 | H -0.463
